Experiment [1] deals with T1, human melanocortin-1 (MC1) receptor (human).
T1 chain: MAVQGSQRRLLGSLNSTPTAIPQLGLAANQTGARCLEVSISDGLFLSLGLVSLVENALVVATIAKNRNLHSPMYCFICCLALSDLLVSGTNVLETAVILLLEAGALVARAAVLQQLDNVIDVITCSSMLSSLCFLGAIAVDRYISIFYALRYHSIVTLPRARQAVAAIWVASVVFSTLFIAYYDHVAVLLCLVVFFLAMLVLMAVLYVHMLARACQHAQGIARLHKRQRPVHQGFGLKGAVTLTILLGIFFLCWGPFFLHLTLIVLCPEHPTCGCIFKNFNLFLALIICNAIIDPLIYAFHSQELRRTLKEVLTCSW
Description: cell-based or functional assay.

For experiment [2], the target named is human melanocortin-3 (MC3) receptor (human). Description: cell-based or functional assay.
In experiment [3] the target is human melanocortin-4 (MC4) receptor (human). Description: cell-based or functional assay.
Experiment [4] deals with T2, mouse melanocortin-5 (mMC5) receptor (mouse).
T2 chain: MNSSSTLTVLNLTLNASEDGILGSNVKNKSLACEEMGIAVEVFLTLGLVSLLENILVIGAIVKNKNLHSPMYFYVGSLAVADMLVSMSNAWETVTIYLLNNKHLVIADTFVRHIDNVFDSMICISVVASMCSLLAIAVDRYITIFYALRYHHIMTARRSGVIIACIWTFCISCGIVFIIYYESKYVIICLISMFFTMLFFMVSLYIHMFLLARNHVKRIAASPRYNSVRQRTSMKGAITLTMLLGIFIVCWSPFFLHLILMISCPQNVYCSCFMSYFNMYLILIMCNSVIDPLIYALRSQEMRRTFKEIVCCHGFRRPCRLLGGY
In words: competition with radio-iodinated NDP-MSH on L-cells transfected with the mMC5 receptor.

Experimental findings from patent US5703220, “Genes encoding melanocertin-4 receptor and methods of use” (The Regents Of The University Of Michigan, dated 1997) are described below.

No end group written: not given here.

human melanocortin-3 (MC3) receptor (human), sequence (chain, as listed by the source limits assumed): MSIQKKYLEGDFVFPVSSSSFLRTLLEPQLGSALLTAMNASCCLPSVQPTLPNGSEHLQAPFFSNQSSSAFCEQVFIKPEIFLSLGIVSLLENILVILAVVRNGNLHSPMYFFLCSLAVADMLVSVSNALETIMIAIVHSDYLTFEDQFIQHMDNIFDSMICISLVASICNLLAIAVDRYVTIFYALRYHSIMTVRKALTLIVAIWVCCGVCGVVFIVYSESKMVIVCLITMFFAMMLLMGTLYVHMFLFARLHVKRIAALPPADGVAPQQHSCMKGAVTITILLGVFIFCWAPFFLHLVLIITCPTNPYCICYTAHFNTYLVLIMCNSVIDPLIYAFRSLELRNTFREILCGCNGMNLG
human melanocortin-4 (MC4) receptor (human), sequence (chain, as listed by the source): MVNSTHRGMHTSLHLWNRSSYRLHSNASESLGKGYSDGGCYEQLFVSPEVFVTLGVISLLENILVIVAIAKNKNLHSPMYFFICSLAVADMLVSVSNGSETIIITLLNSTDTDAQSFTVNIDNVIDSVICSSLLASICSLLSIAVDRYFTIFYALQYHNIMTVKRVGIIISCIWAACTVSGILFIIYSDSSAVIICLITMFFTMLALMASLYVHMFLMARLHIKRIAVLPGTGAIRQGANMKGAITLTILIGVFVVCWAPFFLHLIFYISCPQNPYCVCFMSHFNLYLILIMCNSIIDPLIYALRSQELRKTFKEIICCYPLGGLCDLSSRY

On to SYSMEHFRWGKPVGKKRRPVKVYPNGAEDESAEAFPLEF [human ACTH (1-39)], for which the “ED50 of cAMP generation in transfected L-cells” value in experiment [1] and in experiment [2] was about 1 nM in each case. Further, in experiment [3], the “EC50 of cAMP increase in transfected L-cells” value was determined as 1 nM. Moreover, the binding result in experiment [4] is on record as “binds”.
As for SYSMEHFRWGKPV [ACTH (1-13)], the “fold greater binding affinity than ACTH (1-39)” value in experiment [4] is about 10 fold.
Take Ac-SYSMEHFRWGKPV (ends and bridges not checked) [α-MSH]: the “ED50 of cAMP generation in transfected L-cells” value in experiment [1] and in experiment [2] was about 1 nM throughout.
